Source: the DeepSol protein solubility set

assay: soluble on expression in E. coli; label from the status in PepcDB or PDB records

Which “soluble on expression in E. coli” value does the source give for “MLRTFRIGGIHPPENKLSAGKPVEVLPIPSQVVIPLGQHIGAPATATVKKGDEVKVGTIIAQAGGFVSANIHSSVSGKVLKIDNVYDSSGYPKPAVFISVEGDEWEEGIDRSPAIVKECNLDAKEIVAKISAAGIVGLGGATFPTHVKLSPPPGNKAEILIINAVECEPYLTSDHVLMLEHGEEIMIGVSILMKAIQVNKAVIGVENNKKDAIAHLTKLATAYPGIEVMPLKVQYPQGGEKQLIDAVIRKQVKSGALPISTGAVVQNVGTVFAVYEAVQKNKPLVERIVTVTGKKLSRPSNLLVRIGTPIAALIEAAGGLPENTGKIIGGGPMMGRALLSPDVPVTKGSSGVLILDREEAVRKPMRDCIRCAKCVGVCPMGLNPAFLMRDTLYKSWETAEKGNVVDCIECGSCSFTCPANRPLLDYIRQAKKTVMGIQRARKQLEHHHHHH” here?
The value was “not soluble”.

Which “soluble on expression in E. coli” value does the source give for “MSLDYQGYLIDLDGTIYLGKEPIPAGKRFVERLQEKDLPFLFVTNNTTKSPETVAQRLANEFDIHVPASLVYTATLATIDYMKEANRGKKVFVIGEAGLIDLILEAGFEWDETNPDYVVVGLDTELSYEKVVLATLAIQKGALFIGTNPDKNIPTERGLLPGAGSVVTFVETATQTKPVYIGKPKAIIMERAIAHLGVEKEQVIMVGDNYETDIQSGIQNGIDSLLVTSGFTPKSAVPTLPTPPTYVVDSLDEWTFEGHHHHHH” here?
The value was “soluble”.

With “MGRRRSHERRDLPPNLYIRNNGYYCYRDPRTGKEFGLGRDRRIAITEAIQANIELFSGHKHKPLTARINSDNSVTLHSWLDRYEKILASRGIKQKTLINYMSKIKAIRRGLPDAPLEDITTKEIAAMLNGYIDEGKAASAKLIRSTLSDAFREAIAEGHITTNHVAATRAAKSEVRRSRLTADEYLKIYQAAESSPCWLRLAMELAVVTGQRVGDLCEMKWSDIVDGYLYVEQSKTGVKIAIPTALHIDALGISMKETLDKCKEILGGETIIASTRREPLSSGTVSRYFMRARKASGLSFEGDPPTFHELRSLSARLYEKQISDKFAQHLLGHKSDTMASQFRDDRGREWDKIEIK” as the sequence, how does the “soluble on expression in E. coli” value read?
The value was “soluble”.

Which “soluble on expression in E. coli” value does the source give for “MNPSPSIAGLSDIEALERVPLEQRDLPSSTYELLQRSARRHGQRIALSCLLHGSAAEEPLRISYAELFARVTQTANALHRLGLESHQAVSFLLPNLPQTHYVIWGGEAAGIVNAINPLLEPEHIAELIRASNTRVLVTLAPFPGTDLWQKVAGLRAQLPELYAIVVVDPANLLPAPQREALKAQRGPLPEGVLDFDTLIADCPADRLESGRAIHPDDVASYFHTGGTTGTPKLAPHSHFNEVAMAEIMGLNADYGVDDVLLCGLPLFHVNGVMVTGLAPFHRGAQVLLAGPQGYRNPTLIQDFWKLVERYRVTSFSGVPTIYAALLQVPSDGRDLSSLRFALCGAAPMPVELIRQFEARTGLKVIEGYGLTEGTCGTSCNPRGGERRPGSIGLRLPYCQVKVAVLDGEGNYLRDAAPNEVGNLCLKGPTVFKGYLQQDRNRDIWIGDGWFNTGDLGRIDEDGYIWLTGRSKDLIIRGGHNIDPQMIEEALHRHPAVALAAAVGKPDAKAGELPVAYIQLKPGASASEEELLEHASRHVPERAAVPKDIWLIESMPVTAVGKTFKPALRLDAIRRVLEEESRRIAEDIRVEVVADERHGQLAHLHVPALDERRQAALEELLGGYALNYRL” here?
Its value is “not soluble”.

For “MAIIEEIFEDEEDQITKVDSLKKEGNNFFANGEFEKANEKYQEAIASCPPTSTEVQSILLSNSAAALIKLRKWESAVEAASKSIEIGATNEKALERRAFAYSNMSEKYENSIEDYKQLQESLPKRRVELDRKIAEINEKINNRNEAMKADVMEKLKGFGNFCLSPFGLSTDSFEMVPNGNGGFSVQMKGATNKQEGASQEKKEEENA”, which “soluble on expression in E. coli” value is on record?
Its value is “soluble”.

With “MADPTFAEHVATTNSRLASLRANLIDVSTFPEACSELTKWCQDQRAFTAHFEDNLMMALEAAMDYGTRENYDYMLTHGLVGACFTHRKHLSKPAATRIGRWYEQMRRLKKNGGKRKRAPPKPKDPALQASSQPTGTLPVLTSPSCPQNGQQLPTENNNFMFSPNSSDGLVLVIFSSSINFSLKIRVNAKKRKF” as the sequence, how does the “soluble on expression in E. coli” value read?
The value was “not soluble”.

With “MGLNDNKAGMEGLDKEKINKIIMEATKGSRFYGNELKKEKQVNQRIENMMQQKAQITSQQLRKAQLQVDRFAMELEQSRNLSNTIVHIDMDAFYAAVEMRDNPELKDKPIAVGSMSMLSTSNYHARRFGVRAAMPGFIAKRLCPQLIIVPPNFDKYRAVSKEVKEILADYDPNFMAMSLDEAYLNITKHLEERQNWPEDKRRYFIKMGSSVENDNPGKEVNKLSEHERSISPLLFEESPSDVQPPGDPFQVNFEEQNNPQILQNSVVFGTSAQEVVKEIRFRIEQKTTLTASAGIAPNTMLAKVCSDKNKPNGQYQILPNRQAVMDFIKDLPIRKVSGIGKVTEKMLKALGIITCTELYQQRALLSLLFSETSWHYFLHISLGLGSTHLTRDGERKSMSVERTFSEINKAEEQYSLCQELCSELAQDLQKERLKGRTVTIKLKNVNFEVKTRASTVSSVVSTAEEIFAIAKELLKTEIDADFPHPLRLRLMGVRISSFPNEEDRKHQQ” as the sequence, how does the “soluble on expression in E. coli” value read?
The value was “soluble”.

With “MPDAQILSTHEHGVVVALGDIRTADSITTVVAGVGSANPTQWLNYVERAQHIQQATGGAAVAWLGYNAPANVAAAAAQTPAQQGASQLQKFQKELRTLNPKARLMVFGHSYGSVVAGHAVAHGLDADTFIVAGSPGVPPNPQLHSPNPRLISVLGSHDIIGLTGTNTVAAHGIDPSALSAQDAGFERWGVAGGHESYFTDKRLEHHHHHH” as the sequence, how does the “soluble on expression in E. coli” value read?
Its value is “not soluble”.

With “MGSDKIHHHHHHVTSVSLGMPSAPPPVLAPRRKTRQIKVGSVGVGSDSPISVQSMTTTPTTDINATLQQIAELTASGCDIVRVACPSADDAEALPIIARKSQIPVIADIHFQPKYVFAAIEAGCAAVRVNPGNIRKFDDQVKEIARAAKDHGTSIRIGVNAGSLEPGILKKYGKATPEALVESAVWEASLFEEHGFHDFKISVKHNDPVIMVAAYEMLAEKGDWPLHLGVTEAGPAFQGTIKSATAFGALLSRGIGDTIRVSLSAPPVEEIKVGNQILQSLNLRPRKLEIVSCPSCGRAQVDVYTLAEQVTAGLEGMEIPLRVAVMGCVVNGPGEAREADLGVASGNGKGQIFVKGEVIKTVPESEIVETLIEEAMRIAEEMGEADGEDAVKGSPVVSVS” as the sequence, how does the “soluble on expression in E. coli” value read?
The value was “not soluble”.

For “ANIIANTSLTIGPSKLDVAKITPELLASLNEVGGSEANVATGYHAIEFLLWGQDLNGTNAGAGKRAYTDFVVGSGCTNGHCDRRGEYLKAAADLLVQDLEWMEKQWSADEKGNYRQELLTGSAENGLRKMLFGMGSLSLGELAGERMKVALEANSTEDEHDCFSDNTHNSHYYNEQGIYNVYTGTYSRQDGTVLTGPSIANLVAQEDKKAAEEIQKQFDATRSQVGELVTSAEKHNQHFDQLIAAGNAQGNALVNDTIMALVAQTGAIERAAGIVGIDSLSPDTADHEF”, which “soluble on expression in E. coli” value is on record?
The value was “not soluble”.

Which “soluble on expression in E. coli” value does the source give for “MRPIEEFVYVGNQVIVPDQASLMRCYYPIIGGEGYALYQYFVAFYDNGNHRHKFATILNHLNFGMQPLQESLAVLTAVDLLAFYHSPQGIYVVELKSPLSIEQFLKHAVYSSLLEQKIGEPAVDALKPTSLHGLQDLSKRFSDVFTDERLAQKSVSEIKPKNSFDLISFRNRMQADGLVFTDEKTDVPEIYKLSETYDMNWYDTYLLSKKTAVNHRIIVKRMQVQLEQAQAQKLGGDSALTETEKKILKAVKSGKPVDYLQSAKGPGGTVTNSEKKILTDLAQRGFMDEVINLMVAYSLGRTRSTNVNREYISKVANDFDFKKIVTAEQGLLALRSGYDKKSQRAKDDSKKKTNVPSWSDPDYDNQTNQADQAKLDEIRRRALAKLEKGKE” here?
Its value is “soluble”.

For “MILQRLFRFSSVIRSAVSVHLRRNIGVTAVAFNKELDPIQKLFVDKIREYKSKRQTSGGPVDASSEYQQELERELFKLKQMFGNADMNTFPTFKFEDPKFEVIEKPQALEHHHHHH”, which “soluble on expression in E. coli” value is on record?
Its value is “not soluble”.

For “MGSDKIHHHHHHAQSIAKGSTPDFSEARTLIKGALENPETKDDAKTWYVAGFIEDQQFSNERTKQVLGQQPDEPVMYEALGSILPYFEKAYELDQLPNEKGKVKPKFTKDIKGILGANHVYYINGGAYYFDQKDYNKAYDFFEQYLKISDMPMFKGEAVAERDSNFMTVQFYAAVAATQLGDSQKAIAALERAKNTDYRASEVYQYLCYEYEQAKDTVNLEKTLEEGLNKFPEEQYFLMSLINNYIYSNRNEKAIEYLNTAIAKDSNNPQLYDVMGRVYETGLKDYAKAEEYFKKALAINPDYIESLSNLGRVYYNQGVNKQGEANMINDAKQYQEELGKAKEFFKQALPYFEKAHQMKPEEREYMTALRGIYYNLNMGDKFDAIEAEMNK”, which “soluble on expression in E. coli” value is on record?
The value was “not soluble”.

With “MTSGSLQFTVLRAVNPATDAQRESMLREPGFGKYHTDHMVSIDYAEGRGWHNARVIPYGPIELDPSAIVLHYAQEVFEGLKAYRWADGSIVSFRADANAARLRSSARRLAIPELPDAVFIESLRQLIAVDKAWVPGAGGEEALYLRPFIFATEPGLGVRPATQYRYLLIASPAGAYFKGGIAPVSVWVSTEYVRACPGGTGAAKFGGNYAASLLAQAEAAENGCDQVVWLDAVERRYIEEMGGMNIFFVLGSGGSARLVTPELSGSLLPGITRDSLLQLAIDAGFAVEERRIDIDEWQKKAAAGEITEVFACGTAAVITPVARVRHGASEFRIADGQPGEVTMALRDTLTGIQRGTFADTHGWMARLG” as the sequence, how does the “soluble on expression in E. coli” value read?
Its value is “soluble”.

Which “soluble on expression in E. coli” value does the source give for “MGSDKIHHHHHHMGLLTNLKDSISRAASTLFSEEDPKRIGIYGPPNAGKTTLANRIARDWTGDAVGPESHVPHETRRARRKENVEIERDGKKVTIDIVDTPGVTTKVDYTEFLEHDMEKDDAVRRSREATEGVAEAMHWLREDVDGVIYVLDSATDPFTQVNTMLIGIIESQDLPVLILANKIDLEESSVQRIRNAYPQHETIPLSALEGDNMDEVYDKIAEYFG” here?
Its value is “not soluble”.

For “MGSDKIHHHHHHMRPAPSIVEVVAAIIIGSDGSFLLARRPEGKPYAGYWEFPGGKVNPEESLLRALKRELLEELGIHVKHAYPWITRTFTYPHARVRLHFYRVVEWHGEPHPHEDQELSWQFADNVSVEPLLPANAPVLRALALPPVYGITNAAEWGPQIAAARIGHALQKGLRLVQLREKGMRSKALDAFAREVTALAHHYGARILVNSGTGNESLCQELDMDGIHFTSADLMNLSKRPDVEWCAASCHNAEELFRAEQLEMDFAVLAPVLPTLSHPDSPVLGWRKLARIIHGSAIPVYALGGLQSEDLAIAWEHGAHGIALMRRIEQVRGTGQKA”, which “soluble on expression in E. coli” value is on record?
Its value is “not soluble”.

With “MSLDKIRYGIMSTAQIVPRFVAGLRESAQAEVRGIASRRLENAQKMAKELAIPVAYGSYEELCKDETIDIIYIPTYNQGHYSAAKLALSQGKPVLLEKPFTLNAAEAEELFAIAQEQGVFLMEAQKSVFLPITQKVKATIQEGGLGEILWVQSVTAYPNVDHIPWFYSREAGGGALHGSGSYPLQYLQYVLGKEIQEVTGTATYQQGATDSQCNLALKFAEGTLGNIFINVGLKIPSEMTICGTKGQIVIPNFWKTDCAYYTDAQGNTVKWSEQFTSEFTYEINHVNQCLQDKKLTSPVMTKELTIATVKIVESFYQEWFDNEGHHHHHH” as the sequence, how does the “soluble on expression in E. coli” value read?
The value was “soluble”.

With “MDRVALKPFRRIAVILLAGAVIATSTSCSRDERKKEEEKHLESMMSILVQVQKNLGRIRQKEAVVVRLSSDVEGRKPKSAEQIGREINTNIRFIDSTLSASKNLVATLEKQNHESQYRIAALDRMTGQLKGELDKKELELGAMKREIAKLNRQIARLTNTVDVMDEAISDQEDQMVKAYYVVGTVDQLVSKGILVPPGPFSRFFGMRPVLANDFDLRPFRQVDITETKDIYFDKPVSRLHVITPHTKGSYELVGGKTSSLLLIRNEAEFWKKSRCLVIVVE” as the sequence, how does the “soluble on expression in E. coli” value read?
Its value is “not soluble”.
